From the supplement of paper PMC12042874
± gives the uncertainty stated by the source.

Test: amyloid nucleation score (Sup35N fusion, yeast selection) (log enrichment); library NNK2; higher = more nucleation; inactive = no reads after selection
Summary of the method: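 The nucleation score equals the log enrichment of output over input reads from DiMSum, centred on the mode score of non-aggregating sequences. It was computed only for sequences with 100 or more input reads. The reads came from Illumina sequencing of plasmid inserts from psi-negative yeast expressing Sup35N fused to peptides of 20 random codons, induced with 100 μM copper sulfate for 24 hours and grown 7 days at 30°C without adenine and uracil.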

Substance	amyloid nucleation score
IVYLWRNRWVDLADYLLHVM	0.313 ± 0.29
IVYYG	0.801 ± 0.38
IWGPVLYIMSGYSSVVTRF	6.561 ± 0.055
IWHFYIACLGVSNESISGFG	6.77 ± 0.068
IWLLHQCSLATLGFC	-1.25 ± 0.62
IWPSRSGCVSVASVRI	0.98 ± 0.33
IWSYSSFGVD	-0.064 ± 1.1
IYCHPLRYVLFIVSYRVSSA	0.259 ± 0.56
IYEQPG	0.012 ± 0.54
IYFFSVF	inactive
IYGLYG	0.515 ± 0.51
IYGQCWVFQNLLRLRVSV	0.119 ± 0.76
IYIAKW	-0.656 ± 0.33
IYLHFGNLLNYFETRRTVFR	6.19 ± 0.087
IYQVRLYD	-0.923 ± 0.5
IYTWSIRIYRF	-0.778 ± 0.48
IYVVMFSKRLNSNFW	-1.62 ± 0.62
IYYGGLKHARVPVTRFEGSP	3.87 ± 0.098
KAKIATKVSLFLLSGYVDLQ	-0.356 ± 0.65
KALCLYNVVRKKRCT	0.152 ± 0.5
KALFLCILMLSASAFQEECH	4.47 ± 0.085
KAVVMLI	-1.09 ± 0.31

Substance	amyloid nucleation score
KAWTLVRHDVLLYV	-0.316 ± 0.44
KCCVENCRWHGRLSSLLFAM	0.576 ± 0.34
KCGEKRMKCFSDCRRWWLCQ	4.88 ± 0.068
KCGSSVVYFIVYQRKLKWGW	0.961 ± 0.81
KCLSRTQTYACSP	1.78 ± 0.21
KCVSRISSGR	1.03 ± 0.66
KCVVRAVA	2.23 ± 0.24
KCYLVLRG	3.08 ± 0.17
KDRRRVDMLRLGR	1.36 ± 0.26
KEFYGKRIFRCLYDVLVVLF	-1.25 ± 0.54
KEMAFVRGMTARPRYNVNSE	1.22 ± 0.29
KFCCT	3.47 ± 0.1
KFFMDYNGILDFWFRTREKD	-0.375 ± 0.74
KFGLPREYNSSVPVGPASCL	0.272 ± 0.41
KFMVLITVRMIVIRPVSVRS	0.647 ± 0.58
KFNGPKIVYFISTSMVLLVS	-0.406 ± 1.1
KFPYVHLVFLARIYSF	-0.536 ± 1.1
KFTLGHVNIVWNMVVYATQE	8.24 ± 0.083
KGAMA	0.539 ± 0.39
KGMNCVCACAINRPYSIVLQ	1.41 ± 0.15
KGSGRSQLSSIVCVFFGQTV	-0.292 ± 0.49
KHCMCYLLWNI	-0.422 ± 1.1

Substance	amyloid nucleation score
KHRRYFFCVGSIRWASVYKT	inactive
KHSDSTGARQWGNNVYKLDD	0.366 ± 0.2
KICSYPR	2.46 ± 0.11
KIEGHGFYYLFNWTA	-0.833 ± 0.78
KIKPLIIKNMCGNNTGPGIQ	inactive
KILFPVR	-0.927 ± 1
KITCVITNALCSLTERADR	9.394 ± 0.069
KIWDCSMYTF	-1.07 ± 0.55
KIWMSLHLRELRLC	0.569 ± 0.12
KKFSSMYRSEFGNSI	-0.65 ± 0.41
KKNEIEVECGPNCGTGTLVF	5.04 ± 0.054
KKSSVPTSYLYVNENFLTVL	6.965 ± 0.054
KKVVLRPS	4.97 ± 0.051
KLGFWVGSWLSSRSVDCSCM	1.33 ± 0.35
KLGIDRGTVCLWLSV	0.401 ± 0.14
KLGLSSIHFSGSMFVRCTFC	4.503 ± 0.041
KLHRLTGGHYDPNCDNGPVD	3.68 ± 0.059
KLHSVQLNTRVLIN	0.219 ± 0.26
KLIVMGTNPGRVGNGWKRKS	0.53 ± 0.3
KLMVPA	0.248 ± 0.28
KLSLNVLGSRSERWLLLFSC	-0.291 ± 0.79
KLTFTVMYTFCKVLSRDVAC	3.1 ± 0.1

Substance	amyloid nucleation score
KLVDLKVRFDSHLDNLEVAL	-0.204 ± 0.46
KLVISAFPPIRNMVYTKCSK	-0.446 ± 1.1
KMKAGAMWCGSRIASKSRRG	1.51 ± 0.15
KMLPSGARDLMPMDLLDFMM	-0.234 ± 0.25
KMSVLG	-0.936 ± 0.64
KMTLLFARQFGV	2.93 ± 0.12
KMYYGSKNTKSDLARTYGTL	1.61 ± 0.44
KNCVHE	-0.076 ± 0.79
KNFSCVN	0.706 ± 0.74
KNKTL	0.576 ± 0.46
KNLDQYCCCFNALTLSVSRS	7.473 ± 0.051
KNSIDQVTWTCNRYLKLVLS	-0.402 ± 0.39
KNSLKVLLNRRLRVCGSQLN	-0.309 ± 0.45
KNWVYVAWRRENYEQPFIR	-0.299 ± 1
KNYGYNIN	1.83 ± 0.17
KPAERLFKCRSTE	0.014 ± 0.49
KPDCVLTTGFTSSLRFIMKK	-0.007 ± 0.55
KPDTMNFWVVLALNFDLGRT	2.77 ± 0.099
KQGKRSTAHRSIVPLSFRH	1.58 ± 0.14
KRGKPK	inactive
KRNVLRVTSCHKEYSVGSVP	0.739 ± 0.22
KRNVRFVGMITKRMSRSRPI	0.511 ± 0.43
